One molecule from patent US20240084023A1 (NGM BIOPHARMACEUTICALS, published 2024) can be followed below.

Common to all, as to test: flow cytometry on transfected 293XP cells
Assay [1] has as its target T1, GCGR extracellular domain alanine mutant K64A (human, UniProt P47871 26-136, limits assumed).
T1 construct: expressed in 293XP cells
T1 chain: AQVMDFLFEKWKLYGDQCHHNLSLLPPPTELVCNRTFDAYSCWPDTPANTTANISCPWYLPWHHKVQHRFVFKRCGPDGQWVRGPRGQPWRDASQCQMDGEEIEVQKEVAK
The protocol:
(§1) To assist in gathering information on the GCGR epitope that the 6B5 binning group bound to, “alanine scanning mutagenesis” was undertaken. These alanine scanning mutagenesis platform is a technique used for mapping both linear and conformational antigen epitopes by evaluating the effects of point mutations across a target protein. Single residues in a target protein are replaced by alanine one at a time to construct a mutant library. Each variant is assayed for its ability to bind to an antibody of interest. […] Amino acids across the extracellular domain of GCGR were mutated to alanine and the anti-GCGR antibody Hz6B5 was tested for binding to the alanine mutants.
(§2) The wild-type GCGR extracellular domain and the alanine mutants were each transfected into 293XP cells and incubated for 24 hours. Antibody Hz6B5 was incubated with the transfected cells for 30 minutes at 4° C. After washing with PBS/1% BSA/0.1% azide, the cells were incubated with a labeled anti-mouse Fc antibody (Jackson Immunoresearch) for 30 minutes at 4° C. After washing with PBS/1% BSA/0.1% azide, the cells were analyzed using a flow cytometer BD (FACSCalibur instrument) and cytometric analytical software (FlowJo). A serum sample from a mouse immunized with human GCGR was used as positive control to confirm expression of the alanine mutants.

For assay [2], the target named is T2, GCGR extracellular domain alanine mutant T75A (human, UniProt P47871 26-136, limits assumed).
T2 construct: expressed in 293XP cells
T2 chain: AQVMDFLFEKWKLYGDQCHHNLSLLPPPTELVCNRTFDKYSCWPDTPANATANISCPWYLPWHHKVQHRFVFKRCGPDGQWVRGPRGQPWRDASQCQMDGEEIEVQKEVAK
The protocol:
as §1, §2

In assay [3] the target is T3, GCGR extracellular domain alanine mutant D41A (human, UniProt P47871 26-136, limits assumed).
T3 construct: expressed in 293XP cells
T3 chain: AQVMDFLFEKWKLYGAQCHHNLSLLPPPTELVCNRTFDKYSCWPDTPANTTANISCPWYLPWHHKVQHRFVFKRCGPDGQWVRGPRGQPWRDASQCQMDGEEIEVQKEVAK
The protocol:
as §1, §2

Assay [4] concerns the target T4, GCGR extracellular domain alanine mutant K90A (human, UniProt P47871 26-136, limits assumed).
T4 construct: expressed in 293XP cells
T4 chain: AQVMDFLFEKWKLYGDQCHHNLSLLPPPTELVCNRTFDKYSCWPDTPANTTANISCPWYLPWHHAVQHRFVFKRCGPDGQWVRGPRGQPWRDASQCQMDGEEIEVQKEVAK
As for the experimental part: as §1, §2

For assay [5], the target named is T5, GCGR extracellular domain alanine mutant F31A (human, UniProt P47871 26-136, limits assumed).
T5 construct: expressed in 293XP cells
T5 chain: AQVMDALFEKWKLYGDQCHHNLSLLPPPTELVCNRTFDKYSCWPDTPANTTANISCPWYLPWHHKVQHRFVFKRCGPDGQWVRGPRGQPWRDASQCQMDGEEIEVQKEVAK
The protocol:
as §1, §2

Assay [6] concerns the target T6, GCGR extracellular domain alanine mutant Q113A (human, UniProt P47871 26-136, limits assumed).
T6 construct: expressed in 293XP cells
T6 chain: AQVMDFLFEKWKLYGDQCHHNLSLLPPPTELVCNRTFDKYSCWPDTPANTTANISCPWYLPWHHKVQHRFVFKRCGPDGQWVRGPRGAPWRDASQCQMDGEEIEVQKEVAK
As for the experimental part:
as §1, §2

In assay [7] the target is T7, GCGR extracellular domain alanine mutant L85A (human, UniProt P47871 26-136, limits assumed).
T7 construct: expressed in 293XP cells
T7 chain: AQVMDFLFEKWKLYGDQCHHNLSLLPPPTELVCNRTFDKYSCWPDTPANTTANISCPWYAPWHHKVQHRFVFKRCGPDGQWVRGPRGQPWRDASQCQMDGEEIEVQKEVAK
As for the experimental part:
as §1, §2

Assay [8] has as its target T8, GCGR extracellular domain alanine mutant W83A (human, UniProt P47871 26-136, limits assumed).
T8 construct: expressed in 293XP cells
T8 chain: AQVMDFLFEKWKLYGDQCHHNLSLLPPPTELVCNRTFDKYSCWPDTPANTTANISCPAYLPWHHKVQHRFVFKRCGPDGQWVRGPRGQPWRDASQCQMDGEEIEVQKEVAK
As for the experimental part:
as §1, §2

Assay [9] addresses T9, GCGR extracellular domain alanine mutant P110A (human, UniProt P47871 26-136, limits assumed).
T9 construct: expressed in 293XP cells
T9 chain: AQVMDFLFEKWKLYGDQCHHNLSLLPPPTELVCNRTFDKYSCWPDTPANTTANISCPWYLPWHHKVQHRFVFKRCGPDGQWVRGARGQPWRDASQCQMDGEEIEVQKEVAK
As for the experimental part: as §1, §2

Assay [10] has as its target T10, GCGR extracellular domain alanine mutant W36A (human, UniProt P47871 26-136, limits assumed).
T10 construct: expressed in 293XP cells
T10 chain: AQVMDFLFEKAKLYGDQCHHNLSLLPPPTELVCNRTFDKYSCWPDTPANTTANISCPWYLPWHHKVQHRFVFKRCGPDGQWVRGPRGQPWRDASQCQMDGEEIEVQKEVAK
The protocol: as §1, §2

Assay [11] addresses T11, GCGR extracellular domain alanine mutant F62A (human, UniProt P47871 26-136, limits assumed).
T11 construct: expressed in 293XP cells
T11 chain: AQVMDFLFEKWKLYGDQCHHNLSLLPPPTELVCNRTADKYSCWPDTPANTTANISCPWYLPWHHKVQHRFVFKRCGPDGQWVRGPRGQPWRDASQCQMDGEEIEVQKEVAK
As for the experimental part:
as §1, §2

The target in assay [12] is T12, GCGR extracellular domain alanine mutant R111A (human, UniProt P47871 26-136, limits assumed).
T12 construct: expressed in 293XP cells
T12 chain: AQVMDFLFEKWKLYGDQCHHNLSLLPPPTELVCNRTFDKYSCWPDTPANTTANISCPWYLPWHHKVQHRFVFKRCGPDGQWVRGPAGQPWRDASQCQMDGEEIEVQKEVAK
The protocol: as §1, §2

The target in assay [13] is T13, GCGR extracellular domain alanine mutant W87A (human, UniProt P47871 26-136, limits assumed).
T13 construct: expressed in 293XP cells
T13 chain: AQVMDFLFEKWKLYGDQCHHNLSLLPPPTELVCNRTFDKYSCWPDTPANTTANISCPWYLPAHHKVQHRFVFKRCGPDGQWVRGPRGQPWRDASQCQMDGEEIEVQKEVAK
As for the experimental part: as §1, §2

B1: anti-GCGR antibody Hz6B5 (antibody, V domains shown)
VH: QVQLVQSGAEVKKPGSSVKVSCKASGFTFTNHWLGWVRQAPGQGLEWIGDIYPGGYYINYNEKFKGRVTITADESTSTAYMELSSLRSEDTAVYYCARHTNYGSDYWGQGTTVTVSS
VL: DVVMTQSPLSLPVTLGQPASISCRSSQSIVDSYGNTFLEWYQQRPGQSPRLLIYKVSNRLSGVPDRFSGSGSGTDFTLKISRVEAEDVGVYYCFQGSHVPWTFGQGTKLEIK
notes: Humanized 6B5
Take B1: the “% positive cells” value in assay [1] stood at 87.6%; in [2], 84.9%; in [3], 84.3%; in assay [4], 83%; in assay [5], 85.1%; in assay [6], 83.4%. Further, the “% positive cells” value amounted to 11.7% in assay [7]; 72.6% in assay [8]; 84.7% in [9]; 70.9% in assay [10]; 62.8% in [11]; 84.5% in assay [12]. Also, the “% positive cells” value in assay [13] is 74.7%.
